These results are taken from patent publication US20220073631A1 (QYUNS THERAPEUTICS, published 2022).

Numbering of substitutions follows the chain as printed.

The target of one experiment is T1, hIL-4Rα-Mu242 (human, UniProt P24394 26-232).
T1 construct: Printed positions fit the mature protein; also called V68R/V69F/S70Q; not shown: C-terminal his-tag
T1 chain: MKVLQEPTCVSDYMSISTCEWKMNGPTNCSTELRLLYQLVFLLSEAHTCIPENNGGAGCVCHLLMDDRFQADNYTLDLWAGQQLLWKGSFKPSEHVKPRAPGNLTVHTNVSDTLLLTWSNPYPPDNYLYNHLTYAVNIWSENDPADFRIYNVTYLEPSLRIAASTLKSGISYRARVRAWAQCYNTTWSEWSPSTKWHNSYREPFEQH
Kind of experiment: SPR, Biacore T200, by the methods of Example 2. How it is done:
(§1) The protein A was chemically coupled to a CM5 chip, and an appropriate amount of the antibody was immobilized by a capture method such that the Rmax was less than 50 RU and the flow rate for the capture was 10 μl/min. The antigen was subject to gradient dilution, and the flow rate in the instrument was switched to 30 μl/min. The antigen was flowed through the reference channel and the channel with the immobilized antibody sequentially in an ascending order of concentration, and the running buffer was flowed through as a negative control. After each binding and dissociation was complete, the chip was regenerated with glycine, pH 1.5. Fitting was performed with the build-in software in the instrument according to a 1:1 binding model. The binding rate constant kₐ, the dissociation rate constant kd, and the equilibrium dissociation constant KD values of the antibody were calculated. Dupilumab was obtained by purchasing a commercially available medicine.
(§2) To further narrow down the key amino acids that PD2-31 binds to, multiple mutants of hIL-4Rα were designed in Loop 2 (V40FLLSEA46) and Loop 3 (M65[…]73) (Table 2). The wild-type hIL-4Rα (hIL-4Rα-ECD) and hIL-4Rα mutants were prepared using standard techniques. Briefly, the expression plasmids containing the extracellular domain of wild-type hIL-4Rα and different mutated hIL-4Rα were constructed and transfected into HEK 293F cells. After expression, the extracellular domain of wild-type hIL-4Rα and hIL-4Rα mutants with C-terminus his-tag were purified by Nickel chromatography. Purified proteins of wild-type hIL-4Rα and hIL-4Rα mutants were analyzed for interaction with PD2-31 and Dupilumab. The interaction was studied by Biacore T200, according to the methods in Example 2.
A general note: In SPR one partner is held on a chip, and binding of the other changes the refractive index at the surface.

Another experiment addresses T2, hIL-4Rα-Mu243 (human, UniProt P24394 26-232).
T2 construct: Printed positions fit the mature protein; also called V69F/S70Q/A71L; not shown: C-terminal his-tag
T2 chain: T1 chain with R68V, A71L
The experiment in a line: SPR, Biacore T200, by the methods of Example 2. As for the experimental part:
as §1, §2

Another experiment concerns the target T3, hIL-4Rα-Mu245 (human, UniProt P24394 26-232).
T3 construct: Printed positions fit the mature protein; also called A71L/D72R/N73A; not shown: C-terminal his-tag
T3 chain: T1 chain with R68V, F69V, Q70S, A71L, D72R, N73A
Kind of experiment: SPR, Biacore T200, by the methods of Example 2. As for the experimental part: as §1, §2

The next experiment addresses T4, hIL-4Rα-Mu453 (human, UniProt P24394 26-232).
T4 construct: Printed positions fit the mature protein; also called D66A/D67A; not shown: C-terminal his-tag
The experiment in a line: SPR, Biacore T200, by the methods of Example 2. As for the experimental part:
as §1, §2

The target in a further experiment is T5, hIL-4Rα-Mu239 (human, UniProt P24394 26-232).
T5 construct: Printed positions fit the mature protein; also called M65I/D66A/D67A; not shown: C-terminal his-tag
T5 chain: T1 chain with M65I, D66A, D67A, R68V, F69V, Q70S
The experiment in a line: SPR, Biacore T200, by the methods of Example 2. As for the experimental part: as §1, §2

A further experiment has as its target T6, hIL-4Rα-Mu240 (human, UniProt P24394 26-232).
T6 construct: Printed positions fit the mature protein; also called D66A/D67A/V68R; not shown: C-terminal his-tag
T6 chain: T1 chain with D66A, D67A, F69V, Q70S
Kind of experiment: SPR, Biacore T200, by the methods of Example 2. How it is done:
as §1, §2

Experiment [1] addresses T7, human IL-4Rα (Shanghai Novoprotein Technology Co., Ltd) (human, UniProt P24394 26-232).
T7 construct: Bought protein; also called hIL-4Rα; human interleukin-4 receptor alpha
The experiment in a line: SPR, Biacore T200, antibody captured on protein A, antigen as analyte, 25 C, 1:1 model. How it is done:
as §1

B1: QX005N (PD2-31) (antibody, V domains shown)
VH: EVQLVESGGGLVQPGGSLRLSCAASGIDLRTNSMSWVRQAPGKGLEWVGIIGSSGYMDYASWAKGRFTISRDNSKNTLYLQMNSLRAEDTAVYYCARHGDSSSFALWGQGTLVTVSS
VL: DIQMTQSPSSLSASVGDRVTITCRASESVYKNNRLSWYQQKPGKAPKLLIYEASKVASGVPSRFSGSGSGTDFTLTISSLQPEDFATYYCAGAYRGNIYPFGQGTKVEIK
notes: Humanized from rabbit clone #2, expressed as a full antibody in ExpiCHO-S cells (heavy chain 48.5 kDa, light chain 23.7 kDa)
Regarding B1, the Kd is 0.979 nM in the experiment with hIL-4Rα-Mu242; 0.131 nM with hIL-4Rα-Mu243; 1.45 nM in the experiment with hIL-4Rα-Mu245; 0.663 nM with hIL-4Rα-Mu453; 0.163 nM with hIL-4Rα-Mu239; 0.75 nM with hIL-4Rα-Mu240. The same molecule displayed a Kd in experiment [1] of 0.378 nM. Besides, the koff with hIL-4Rα-Mu242 is 0.000138 s⁻¹; with hIL-4Rα-Mu243 it was 9.45e-05 s⁻¹; in the experiment with hIL-4Rα-Mu245 it was 0.00029 s⁻¹; with hIL-4Rα-Mu453 it was 0.000118 s⁻¹; with hIL-4Rα-Mu239 it was 2.71e-05 s⁻¹; with hIL-4Rα-Mu240, 5.23e-05 s⁻¹. For the same molecule, the koff in experiment [1] turned out to be 0.000236 s⁻¹. In addition, the kon is 141000 M⁻¹ s⁻¹ in the experiment with hIL-4Rα-Mu242; 723000 M⁻¹ s⁻¹ with hIL-4Rα-Mu243; 201000 M⁻¹ s⁻¹ with hIL-4Rα-Mu245; 178000 M⁻¹ s⁻¹ with hIL-4Rα-Mu453; 166000 M⁻¹ s⁻¹ in the experiment with hIL-4Rα-Mu239; 69800 M⁻¹ s⁻¹ with hIL-4Rα-Mu240. Moreover, in experiment [1], the kon was 612000 M⁻¹ s⁻¹.

As usually defined, the Kd is the concentration at which binding is half-saturated. What is called koff is a measure of how fast the partners let go of each other. A high value points to fast dissociation. What is called kon is a measure of how fast the partners come together. Higher therefore signals faster complex formation.
